The supplement of paper PMC9112550, “Optimization of the antimicrobial peptide Bac7 by deep mutational scanning” (BMC Biology, 2022)

tested on: Escherichia coli TOP10; assay: shrunken log2 fold change of peptide-encoding DNA abundance (4.5 h post-induction vs induction); higher = less antimicrobial activity (less host growth inhibition); conditions: time post-induction: 4.5 h; library: site-saturation at positions 5, 18, 19, 20
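Further: peptides expressed intracellularly from a pBAD plasmid library in pooled LB shake-flask culture, induced with 0.3% L-arabinose, DNA abundance read by NGS, three biological replicates, DESeq2 with apeglm shrinkage.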

| Sequence | shrunken log2 fold change |
| --- | --- |
| RRIRARPPRLPRPRPRPTFWPRP | 0.445 |
| RRIRRRPPRLPRPRPRPGVVPRP | 0.281 |
| RRIRPRPPRLPRPRPRPQWPPRP | -0.0484 |
| RRIRIRPPRLPRPRPRPVYFPRP | -0.807 |
| RRIRCRPPRLPRPRPRPRGIPRP | 0.094 |
| RRIRTRPPRLPRPRPRPEYHPRP | -0.00732 |
| RRIRKRPPRLPRPRPRPGFAPRP | 0.718 |
| RRIRDRPPRLPRPRPRPNRNPRP | -0.227 |
| RRIRNRPPRLPRPRPRPKYVPRP | -0.00968 |
| RRIRCRPPRLPRPRPRPNNLPRP | -0.765 |
| RRIRYRPPRLPRPRPRPFAYPRP | -0.00131 |
| RRIRKRPPRLPRPRPRPVHCPRP | 0.0295 |
| RRIRDRPPRLPRPRPRPNVIPRP | -0.0253 |
| RRIRFRPPRLPRPRPRPRKTPRP | 0.0798 |
| RRIRERPPRLPRPRPRPVVPPRP | -0.158 |
| RRIRTRPPRLPRPRPRPPMYPRP | -0.406 |
| RRIRQRPPRLPRPRPRPWEIPRP | -0.00822 |
| RRIRWRPPRLPRPRPRPTVQPRP | 0.116 |
| RRIRARPPRLPRPRPRPSSAPRP | 1.29 |
| RRIRERPPRLPRPRPRPKDKPRP | -0.15 |
| RRIRDRPPRLPRPRPRPLYGPRP | -0.105 |
| RRIRNRPPRLPRPRPRPASRPRP | 0.12 |

| Sequence | shrunken log2 fold change |
| --- | --- |
| RRIRKRPPRLPRPRPRPCEWPRP | -0.0222 |
| RRIRPRPPRLPRPRPRPFKYPRP | -0.0171 |
| RRIRCRPPRLPRPRPRPKMNPRP | -0.415 |
| RRIRPRPPRLPRPRPRPDEEPRP | 0.0245 |
| RRIRARPPRLPRPRPRPIIGPRP | -0.065 |
| RRIRKRPPRLPRPRPRPFNSPRP | -0.0903 |
| RRIRDRPPRLPRPRPRPFKIPRP | -0.249 |
| RRIRTRPPRLPRPRPRPNWMPRP | 0.286 |
| RRIRDRPPRLPRPRPRPNFPPRP | -0.0273 |
| RRIRRRPPRLPRPRPRPVLIPRP | 0.177 |
| RRIRMRPPRLPRPRPRPLQDPRP | 2.56 |
| RRIRCRPPRLPRPRPRPAKIPRP | -0.361 |
| RRIRQRPPRLPRPRPRPRDRPRP | 0.399 |
| RRIRNRPPRLPRPRPRPINIPRP | 0.00587 |
| RRIRCRPPRLPRPRPRPFVRPRP | -0.141 |
| RRIRKRPPRLPRPRPRPHGFPRP | 0.056 |
| RRIRWRPPRLPRPRPRPFAQPRP | -0.0369 |
| RRIRSRPPRLPRPRPRPRQHPRP | 0.169 |
| RRIRIRPPRLPRPRPRPVNSPRP | -0.319 |
| RRIRPRPPRLPRPRPRPWTFPRP | -0.00547 |
| RRIRARPPRLPRPRPRPGLTPRP | 0.686 |
| RRIRCRPPRLPRPRPRPAELPRP | 0.0853 |

| Sequence | shrunken log2 fold change |
| --- | --- |
| RRIRVRPPRLPRPRPRPLWVPRP | -0.147 |
| RRIRFRPPRLPRPRPRPFAMPRP | -0.326 |
| RRIRVRPPRLPRPRPRPQKPPRP | 0.116 |
| RRIRCRPPRLPRPRPRPTMRPRP | 0.529 |
| RRIRVRPPRLPRPRPRPDLDPRP | 0.156 |
| RRIRARPPRLPRPRPRPNIFPRP | 0.0429 |
| RRIRERPPRLPRPRPRPLAQPRP | 0.21 |
| RRIRYRPPRLPRPRPRPEYRPRP | -0.00979 |
| RRIRQRPPRLPRPRPRPFSIPRP | -0.104 |
| RRIRGRPPRLPRPRPRPPRCPRP | 0.951 |
| RRIRIRPPRLPRPRPRPLIRPRP | -0.508 |
| RRIRVRPPRLPRPRPRPGFCPRP | 0.352 |
| RRIRQRPPRLPRPRPRPRWSPRP | 0.231 |
| RRIRMRPPRLPRPRPRPYWTPRP | -0.354 |
| RRIRQRPPRLPRPRPRPWLEPRP | 0.0751 |
| RRIRNRPPRLPRPRPRPNINPRP | -0.638 |
| RRIRFRPPRLPRPRPRPHVYPRP | -0.0438 |
| RRIRSRPPRLPRPRPRPCIPPRP | -0.417 |
| RRIRGRPPRLPRPRPRPQHYPRP | -0.167 |
| RRIRHRPPRLPRPRPRPICGPRP | 0.00743 |
| RRIRARPPRLPRPRPRPTRQPRP | 0.982 |
| RRIRDRPPRLPRPRPRPPHVPRP | 0.0772 |

| Sequence | shrunken log2 fold change |
| --- | --- |
| RRIRIRPPRLPRPRPRPQHGPRP | -0.184 |
| RRIRGRPPRLPRPRPRPCEKPRP | 0.797 |
| RRIRERPPRLPRPRPRPCEMPRP | 0.118 |
| RRIRTRPPRLPRPRPRPLCCPRP | 1 |
| RRIRNRPPRLPRPRPRPATAPRP | 0.0174 |
| RRIRNRPPRLPRPRPRPHSEPRP | -0.438 |
| RRIRQRPPRLPRPRPRPTGYPRP | 0.0832 |
| RRIRHRPPRLPRPRPRPAVWPRP | 0.261 |
| RRIRIRPPRLPRPRPRPRDIPRP | -0.203 |
| RRIRIRPPRLPRPRPRPSGDPRP | -0.742 |
| RRIRLRPPRLPRPRPRPQWYPRP | -0.426 |
| RRIRHRPPRLPRPRPRPWGIPRP | -0.0176 |
| RRIRHRPPRLPRPRPRPTAMPRP | 0.148 |
| RRIRCRPPRLPRPRPRPRIQPRP | -0.196 |
| RRIRRRPPRLPRPRPRPNWYPRP | -0.197 |
| RRIRQRPPRLPRPRPRPFSEPRP | -0.477 |
| RRIRRRPPRLPRPRPRPDPWPRP | 0.335 |
| RRIRCRPPRLPRPRPRPCRGPRP | -0.243 |
| RRIRIRPPRLPRPRPRPDGGPRP | -0.446 |
| RRIRMRPPRLPRPRPRPNRKPRP | -0.0954 |
| RRIRIRPPRLPRPRPRPISNPRP | -0.000216 |
| RRIRSRPPRLPRPRPRPGKGPRP | -0.0961 |

| Sequence | shrunken log2 fold change |
| --- | --- |
| RRIRCRPPRLPRPRPRPLRAPRP | 1.02 |
| RRIRVRPPRLPRPRPRPALHPRP | 0.202 |
| RRIRCRPPRLPRPRPRPNGLPRP | -0.132 |
| RRIRERPPRLPRPRPRPTWSPRP | -0.268 |
| RRIRYRPPRLPRPRPRPFAVPRP | -1.09 |
| RRIRFRPPRLPRPRPRPVLQPRP | 0.21 |
| RRIRLRPPRLPRPRPRPRQFPRP | 0.196 |
| RRIRDRPPRLPRPRPRPSQDPRP | -0.0683 |
| RRIRNRPPRLPRPRPRPYSIPRP | -0.534 |
| RRIRGRPPRLPRPRPRPVWKPRP | 0.113 |
| RRIRCRPPRLPRPRPRPWQMPRP | -0.0748 |
| RRIRCRPPRLPRPRPRPGCTPRP | -0.279 |
| RRIRARPPRLPRPRPRPFVRPRP | -0.0552 |
| RRIRSRPPRLPRPRPRPGVRPRP | -0.0323 |
| RRIRVRPPRLPRPRPRPCYKPRP | -0.691 |
| RRIRTRPPRLPRPRPRPHGKPRP | -0.209 |
| RRIRDRPPRLPRPRPRPGIAPRP | 0.37 |
| RRIRARPPRLPRPRPRPPECPRP | 0.327 |
| RRIRCRPPRLPRPRPRPIPFPRP | -0.436 |
| RRIRHRPPRLPRPRPRPVMFPRP | -0.0942 |
| RRIRYRPPRLPRPRPRPKNRPRP | -0.0456 |
